In patent publication US20220235138A1, “CAR-T CELLS TARGETING IL-1RAP AND THEIR USE IN ACUTE MYELOID LEUKEMIA (AML)” (ETABLISSEMENT FRANCAIS DU SANG, priority 2019, published 2022):

Assays:
[1] = tested on: healthy hematopoietic cells (HSCs, monocytes); assay: IL-1RAP cell surface staining of healthy donor peripheral blood and bone marrow cells; type: binding
Experimental: (A) IL-1RAP cell surface expression on peripheral blood (left) or bone marrow (right) cells from healthy donors (n=5). SSC-A/CD45+ allowed discrimination of subpopulations as lymphocytes (SSC-A low), monocytes (CD33+), granulocytes (SSC-A high), or HSCs (CD33−/CD34+). RFI was calculated from isotype staining and provided in each window. (B) Representative (1 of 3) IL-1RAP staining of whole human cord blood cells. IL-1RAP staining is provided for whole CD34+, CD34+/CD38−, and CD34+/CD38+ HSC cord blood subpopulations. (C) IL-1RAP-positive cells among CD34+ cells in cord blood (CB, n=5) or bone marrow (BM) from healthy donors (n=5) compared to CD34+ cells from the BM (n=10) or peripheral blood (PB, n=10) from CML patients. […] Percentages were calculated using absolute cell number determined using Trucount tubes based on 5000 fluorescent-bead cytometry acquisition. (F) Left, Gating strategy and analysis for absolute count of CID AP1903-induced cell death. […] The quantification was performed after acquiring 5000 fluorescent beads. Killing efficiency was normalized to control cells (untreated cells). Cell killing was calculated as follows: % Dead cells=[1−(absolute number of viable cells in AP1903-treated cells/absolute number of viable cells in untreated cells)]×100. (D) Absolute percentage of mortality. 24 h or 48 h C0 or IL-1RAP CAR (gated on CD3+/CD19+) T cell CID exposure. […]

IL-1RAP = assay: Western blotting and cell surface staining of AML cell lines; type: binding, human
Text: Whole cellular lysates of different AML or CML (positive control) hematopoietic cell lines were separated by polyacrylamide gel electrophoresis and electrotransferred onto polyvinylidene difluoride membranes. Membranes were probed overnight with primary IL-1RAP #A3C3 (diluted at 1:20). Twenty micrograms of protein were electrophoresed on sodium dodecyl-sulfate polyacrylamide gels (SDS-PAGE), and then sonicated protein fractions were suspended in RIPA buffer supplemented with a protease inhibitor cocktail (complete Mini EDTA-free; Roche, Bale, Switzerland). Protein load in the western blot lane was evaluated with β-actin mAb staining (1:1000, clone AC15, #A5441, Sigma-Aldrich). Immunodetection staining was performed with a secondary polyclonal antibody sheep anti-mouse IgG (#515-035-062, Jackson). Enhanced chemiluminescence detection reagents allowed detection with a camera and Bio-1D software (Vilber-Lourmat, Collegien, France).
IL-1RAP cell surface staining of different hematopoietic AML cell lines was performed, using #A3C3 mAb and IL-1RAP murine mAb as staining comparison.
Relative Fluorescence Intensity (RFI) between IL-1RAP staining and isotype was calculated. IL-1RAP+ (KU812) or IL-1RAP-(Raji) cell lines were used as positive or negative controls respectively.

[2] = target: T1, IL-1RAP recombinant protein (Homo sapiens, UniProt Q9NPH3); assay: ELISA detection of recombinant IL-1RAP protein; type: binding
T1 construct: recombinant fusion protein consisting of the extra cellular part of IL-1RAP (NM_002182.2, NCBI) and the Fc-part of human IgG1; purchased R&D Systems
T1 sequence (Q9NPH3 21-367 limits assumed): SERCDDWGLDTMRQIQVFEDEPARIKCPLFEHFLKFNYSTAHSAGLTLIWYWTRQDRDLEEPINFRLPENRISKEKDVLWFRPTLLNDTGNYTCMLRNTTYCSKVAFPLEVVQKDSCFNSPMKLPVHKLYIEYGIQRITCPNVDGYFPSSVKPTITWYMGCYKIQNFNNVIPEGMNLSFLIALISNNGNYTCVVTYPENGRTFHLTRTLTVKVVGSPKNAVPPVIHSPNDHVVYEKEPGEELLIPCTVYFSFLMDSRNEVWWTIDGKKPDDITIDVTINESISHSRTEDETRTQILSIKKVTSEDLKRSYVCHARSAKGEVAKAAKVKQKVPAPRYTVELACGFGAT
Text: Anti-human Fc antibody was coated on a bottom of a plastic ELISA plate.

[3] = tested on: HMEC-1 endothelial cell line; assay: Flow cytometry staining of HMEC-1 dermal endothelial cell line; type: binding, human; conditions: microvascular HMEC-1 endothelial cell line
Text: FIG. 13: (A) Tissue microarray. Representative #A3C3 staining of an US Food and Drug Administration standard frozen tissue array, including 90 tissue cores (30 organs) of 3 individual donors per organ (US Biomax, Rockville, Md., USA). Immunostaining was detected using the UltraView Universal DAB Detection Kit (Ventana, USA). Images were acquired and analyzed with NDP.view 2.0 software. […] (Scale bars, 100 μm.) High IL-1RAP (KU812) or negative (Raji)-expressing cell lines were respectively used as positive or negative controls. (B) IL-1RAP R&D (red) or #A3C3 (blue) staining of HMEC-1 dermal endothelial cell line. Isotype IgG1 (gray) is depicted as overlay. RFI is provided for both staining.
In order to predict off-target toxicity, we used the #A3C3 mAb to investigate IL-1RAP expression using a tissue macroarray (TMA) of 30 normal human tissues.

AML blasts = assay: Flow cytometry on primary cells from AML patients; type: cell-based, human; conditions: all subtypes, n=30
Text: FIG. 3: Flow cytometry-gating strategy on AML primary samples of patients. RFI is provided for blasts and monocytes subpopulations (Left). Percentage of IL-1RAP+ within AML blasts and monocytes, CD123+ and IL-1RAP+/CD123+ cells within AML Blasts in a cohort of routine AML (all subtypes) patients (n=30) (Right, up). RFI is also provided (Right, bottom).
For primary samples of bone marrow or peripheral bloods of AML patients, the murine IL-1RAP mAb (#E3C3) was included in a panel allowing to detect CD45, CD34, CD38, CD33, CD123, and CD14 (for monocytes). Stained cells were collected by a CANTO II cytometer (BD Biosciences, Le Pont-de-Claix, France) and analyzed by DIVA 6.1 software (BD Biosciences, Le Pont-de-Claix, France).

IL-1RAP, sequence (Q9NPH3 21-570): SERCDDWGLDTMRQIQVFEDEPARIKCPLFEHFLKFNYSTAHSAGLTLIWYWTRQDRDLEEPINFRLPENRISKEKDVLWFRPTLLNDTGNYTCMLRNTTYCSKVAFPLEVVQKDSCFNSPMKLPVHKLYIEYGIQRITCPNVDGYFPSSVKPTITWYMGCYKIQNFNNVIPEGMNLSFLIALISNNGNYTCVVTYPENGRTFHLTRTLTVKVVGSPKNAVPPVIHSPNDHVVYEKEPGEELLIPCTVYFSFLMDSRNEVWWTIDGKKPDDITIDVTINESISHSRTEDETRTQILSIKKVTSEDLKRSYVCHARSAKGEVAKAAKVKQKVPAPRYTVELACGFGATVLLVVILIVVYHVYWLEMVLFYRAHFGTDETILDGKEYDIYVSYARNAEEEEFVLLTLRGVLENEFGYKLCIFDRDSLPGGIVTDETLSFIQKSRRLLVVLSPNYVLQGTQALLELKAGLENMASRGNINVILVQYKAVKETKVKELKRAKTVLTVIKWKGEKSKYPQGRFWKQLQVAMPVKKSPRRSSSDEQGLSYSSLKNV

B1: #A3C3: mouse anti-hIL-1RAP monoclonal antibody generated by standard hybridoma technique; VH SEQ ID No 2, VL SEQ ID No 4 (antibody, V domains shown)
VH: MGWSCIILFLVATATGVNSQVQLQQPGAELMMPGASVKVSCEASGYTFTDSWMHWVKQRPGQGLEWIGAIDPSDSYTTYNQKFTGKATLSVDESSNTAYMQLSSLTSEDSAVYYCARYYSGSNYISPFPYWGQGTLVTVSA
VL: MESQIQVFVFVFLWLSGVDGDIVMTQSHKFMSTSVGDRVTITCKASLDVSTAVAWYQQKPGQSPKLLIYSASYRYTGVPDRFTGSGSGTDFTFTISSVQAEDLAVYYCQQHYSPPFTFGSGTNLEIK
modifications: Amino acid sequence of chain H (VH) of murine scFv anti-IL-1RAP; Amino acid sequence of chain K (VL) of murine scFv anti-IL-1RAP
RFI ([1]; HSCs in bone marrow from healthy donors, n=5): < 1.2 | RFI ([1]; monocyte subpopulation, weak staining in 2/5 peripheral blood and 3/5 bone marrow from healthy donors): < 2 | staining of AML cell lines expressing IL-1RAP at the cell surface (IL-1RAP): able to stain different AML cell lines | recognition of IL-1RAP recombinant protein [2]: recognize the IL-1RAP recombinant protein | recognition of cell surface IL-1RAP on HMEC-1 [3]: not recognized | presence of IL-1RAP on AML blasts, percentage (AML blasts): 84.27±17.4%
